In US20170166895:

Target: Complement component 3 (C3) (Homo sapiens) (UniProt P01024+P01024)
Test: filter
Conditions: 3'-3' idT
[1] = all U in listing = NapdU, SB18T0.01, 37C
[2] = all U = NapdU, T = dT, SB18T0.01, 37C
[3] = all U in listing = NapdU, SB18T0.01 (5 mM MgCl2), 37C

Sequence of Complement component 3 (C3) (Homo sapiens) (P01024 23-667, chain 1 of 2): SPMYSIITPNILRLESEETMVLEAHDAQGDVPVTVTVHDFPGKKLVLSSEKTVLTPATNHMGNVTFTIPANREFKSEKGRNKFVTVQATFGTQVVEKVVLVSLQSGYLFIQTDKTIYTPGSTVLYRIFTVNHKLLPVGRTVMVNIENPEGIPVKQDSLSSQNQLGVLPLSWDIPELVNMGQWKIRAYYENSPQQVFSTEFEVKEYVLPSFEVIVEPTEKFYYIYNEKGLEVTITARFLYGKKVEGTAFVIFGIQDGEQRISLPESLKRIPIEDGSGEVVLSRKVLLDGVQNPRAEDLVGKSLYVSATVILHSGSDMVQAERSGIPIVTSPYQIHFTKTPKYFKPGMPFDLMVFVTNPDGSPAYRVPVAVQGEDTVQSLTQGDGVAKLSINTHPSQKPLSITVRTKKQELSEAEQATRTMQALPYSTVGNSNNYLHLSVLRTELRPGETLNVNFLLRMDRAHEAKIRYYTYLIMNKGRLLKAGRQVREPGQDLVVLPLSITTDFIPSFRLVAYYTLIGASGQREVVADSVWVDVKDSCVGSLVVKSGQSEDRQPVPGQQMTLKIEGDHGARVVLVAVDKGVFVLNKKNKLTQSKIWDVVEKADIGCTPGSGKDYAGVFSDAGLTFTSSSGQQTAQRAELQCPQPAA
Sequence of Complement component 3 (C3) (Homo sapiens) (P01024 672-1663, chain 2 of 2): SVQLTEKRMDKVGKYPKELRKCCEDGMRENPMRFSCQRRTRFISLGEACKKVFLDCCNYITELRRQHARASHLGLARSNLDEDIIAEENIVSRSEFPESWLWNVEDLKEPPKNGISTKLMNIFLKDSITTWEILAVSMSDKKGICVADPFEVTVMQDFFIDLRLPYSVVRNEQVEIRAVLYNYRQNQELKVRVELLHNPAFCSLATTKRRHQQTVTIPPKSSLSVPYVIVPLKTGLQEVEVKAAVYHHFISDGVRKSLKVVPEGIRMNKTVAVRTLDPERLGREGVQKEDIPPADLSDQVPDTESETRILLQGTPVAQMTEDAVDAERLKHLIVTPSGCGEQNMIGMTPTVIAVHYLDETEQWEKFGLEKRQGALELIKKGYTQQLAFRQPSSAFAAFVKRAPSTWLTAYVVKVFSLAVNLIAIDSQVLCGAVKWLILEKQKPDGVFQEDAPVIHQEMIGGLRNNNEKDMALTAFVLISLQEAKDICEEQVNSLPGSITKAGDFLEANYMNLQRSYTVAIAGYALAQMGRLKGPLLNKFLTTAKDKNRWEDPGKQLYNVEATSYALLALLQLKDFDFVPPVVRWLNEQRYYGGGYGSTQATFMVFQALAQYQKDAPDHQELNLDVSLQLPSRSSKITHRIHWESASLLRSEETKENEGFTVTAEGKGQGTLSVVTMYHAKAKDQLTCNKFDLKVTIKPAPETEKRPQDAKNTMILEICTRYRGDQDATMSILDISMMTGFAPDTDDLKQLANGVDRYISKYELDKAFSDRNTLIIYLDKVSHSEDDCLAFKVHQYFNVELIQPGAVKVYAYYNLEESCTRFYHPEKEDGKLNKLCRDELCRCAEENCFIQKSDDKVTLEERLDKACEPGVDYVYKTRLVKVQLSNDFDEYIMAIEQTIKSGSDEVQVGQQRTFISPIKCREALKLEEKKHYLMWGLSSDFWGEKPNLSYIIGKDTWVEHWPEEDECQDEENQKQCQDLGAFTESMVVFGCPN

ACTCCACGGUGACUCCAUAGUCCGUACGUUCCCGCGGACGCACCGAGGA [8491-388_3]
Kd [1]: 0.71 nM

ACTCCAGACUGUAGUUGACUCCAUAGUCCGUACGUUUACACAUUGGAGGA [8491-189_3]
Kd [1]: 0.0335 nM

ACTCCAGCAACUUGACUCAAUAGUCCGUACGUUUAUGCGAGAACAGAGGA [8491-386_3]
Kd [1]: 0.104 nM

ACTCCAUGUCGGCGUUUGACUCAAUAGUCCGUACGUUUGGCCGGGCAGGGGAGGA [8491-405_3]
Kd [1]: 0.159 nM

ACTCCAUGUCGGCGUUUGGCUCAAUAGUCCGUACGUUUUACGCGUGAGGA [8491-389_3]
Kd [1]: 0.0295 nM

ACTCCCAAGCCUCUCGGUUUGGCUAAAUAGUCCGUACGUUUUCACGAGGA [8491-408_3]
Kd [1]: 0.161 nM

ACTCCCCGGTGACUCAAUAGUCCGUACGUUCCCGGUCCGAACGCGGAGGA [8491-94_11]
Kd [2]: 29.5 nM

ACTCCCCGGUGACTCAAUAGUCCGUACGUUCCCGGUCCGAACGCGGAGGA [8491-94_12]
Kd [2]: 8.57 nM

ACTCCCCGGUGACUCAATAGUCCGUACGUUCCCGGUCCGAACGCGGAGGA [8491-94_13]
Kd [2]: 41.7 nM

ACTCCCCGGUGACUCAAUAGUCCGUACGTUCCCGGUCCGAACGCGGAGGA [8491-94_16]
Kd [2]: 69.4 nM

ACTCCCCGGUGACUCAAUAGUCCGUACGUTCCCGGUCCGAACGCGGAGGA [8491-94_17]
Kd [2]: 2.88 nM

ACTCCCCGGUGACUCAAUAGUCCGUACGUU [8491-94_21]
Kd (all U = NapdU, SB18T0.01, 37C): 0.249 nM

ACTCCCCGGUGACUCAAUAGUCCGUACGUUCC [8491-94_20]
Kd (all U = NapdU, SB18T0.01, 37C): 1.14 nM

ACTCCCCGGUGACUCAAUAGUCCGUACGUUCCCGG [8491-94_19]
Kd (all U = NapdU, SB18T0.01, 37C): 0.0559 nM

ACTCCCCGGUGACUCAAUAGUCCGUACGUUCCCGGTCCGAACGCGGAGGA [8491-94_18]
Kd [2]: 0.0421 nM

ACTCCCCGGUGACUCAAUAGUCCGUACGUUCCCGGUCC [8491-94_7]
Kd (all U = NapdU, SB18T0.01, 37C): 0.0194 nM

ACTCCCCGGUGACUCAAUAGUCCGUACGUUCCCGGUCCGAA [8491-94_6]
Kd (all U = NapdU, SB18T0.01, 37C): 0.019 nM

ACTCCCCGGUGACUCAAUAGUCCGUACGUUCCCGGUCCGAACGC [8491-94_5]
Kd (all U = NapdU, SB18T0.01, 37C): 0.0298 nM

ACTCCCCGGUGACUCAAUAGUCCGUACGUUCCCGGUCCGAACGCGGA [8491-94_4]
Kd (all U = NapdU, SB18T0.01, 37C): 0.0291 nM

ACTCCCCGGUGACUCAAUAGUCCGUACGUUCCCGGUCCGAACGCGGAGGA [8491-94_3]
Kd [3]: 0.0313 nM

ACTCCCCGGUGACUCAAUAGUCCGUACGUUUGGCCGGGCAGGGGAGGA [8491-395_3]
Kd [1]: 3.52 nM

ACTCCCUAACACGGCCGAGUUGACUCCCAUAGUCCGUACGUUUGCGAGGA [8491-387_3]
Kd [1]: 0.519 nM

ACTCCCUAUGAGGGCUGAUUCAAUAGUCAGUACGUUCGCCCCAUCGAGGA [8491-399_3]
Kd [1]: 8.61 nM

ACTCCCUUAAAAGGGUCGUUGACUCCAUAGUCCGUACGUUUCCGAGAGGA [8491-394_3]
Kd [1]: 0.448 nM

ACTCCGAGCAUUGACUCAAUAGUCCGUACGUUCCCGGUCUGAACGUGGAGGA [8491-406_3]
Kd [1]: 2.47 nM

ACTCCGAGCAUUGACUCAAUAGUCCGUACGUUUGGCCCGUUCACAAGGAGGA [8491-393_3]
Kd [1]: 0.25 nM

ACTCCGAGCAUUGACUCAAUAGUCCGUACGUUUGGCCGGGCAGGGGAGGA [8491-3_3]
Kd [3]: 0.119 nM

ACTCCGAGCAUUGACUCAAUAGUCCGUACGUUUUACGCGUGAGGA [8491-407_3]
Kd [1]: 0.208 nM

ACTCCGAGCAUUGACUCAAUAGUCCGUACGUUUUUGACCGGGGCAGGGGGAGGA [8491-385_3]
Kd (all U in listing = NapdU, printed as 1.46-10, SB18T0.01, 37C): 0.146 nM

ACTCCGAGCAUUGACUCAAUAGUCCGUACGUUUUUUUGGGCCGGGGGGGCAGGAGGA [8491-403_3]
Kd (all U in listing = NapdU, printed as 1.53-10, SB18T0.01, 37C): 0.153 nM

ACTCCGAGCUUUUUUGACUCAAUUAGUCCGUACGUUUUUUGGCCGGGCAGGGGAGGA [8491-404_3]
Kd [1]: 0.185 nM

ACTCCGUCUGGCUAACUUAGUCCGUACGUUCGUGAGCGUGAUUAUGAGGA [8491-397_3]
Kd [1]: 3.11 nM

ACTCCUACAAAGCGAUUGGCUCGAUAGUCAGUACGUUUCUCGCUCGAGGA [8491-390_3]
Kd [1]: 0.412 nM

ACTCCUACGGUUGGCUCCAUAGUCAGUACGUUUACGAUACCCCGAGGA [8491-282_3]
Kd [1]: 0.27 nM

ACTCCUCCCACACGACGAAUUUGACUCAAUAGUCCGUACGUUUUAGAGGA [8491-402_3]
Kd [1]: 0.0739 nM

ACTCCUCCCUUUGGCUCGAUAGUCGGUACGUUUUGGGGAGGCGUGGAGGA [8491-409_3]
Kd [1]: 0.316 nM

ACTCCUGUUGACUCACAUAGUCCGUACGUUUACGGCAAUAGCACAGAGGA [8491-396_3]
Kd [1]: 0.311 nM

ACTCCUUGACUCGAUAGUCCGUACGUUUGCGGAAUACCAGCUGACGAGGA [8491-400_3]
Kd [1]: 1.2 nM

CCCCGGUGACUCAAUAGUCCGUACGUUCCCGG [8491-94_25]
Kd (all U = NapdU, SB18T0.01, 37C): 0.0928 nM

CCCCGGUGACUCAAUAGUCCGUACGUUCCCGGUCC [8491-94_24]
Kd (all U = NapdU, SB18T0.01, 37C): 0.0535 nM

CCCCGGUGACUCAAUAGUCCGUACGUUCCCGGUCCGAACGCGGAGGA [8491-94_8]
Kd (all U = NapdU, SB18T0.01, 37C): 0.0369 nM

CCCGGUGACUCAAUAGUCCGUACGUUCCCGGUCCGAACGCGGAGGA [8491-94_22]
Kd (all U = NapdU, SB18T0.01, 37C): 0.103 nM

CCGGUACUCAAUAGUCCGUACGUUCCCGG [8491-94_34]
Kd (all U = NapdU, C3-spacer replaces G6, SB18T0.01, 37C): 14.1 nM

CCGGUGACUAAUAGUCCGUACGUUCCCGG [8491-94_37]
Kd (all U = NapdU, C3-spacer replaces C10, SB18T0.01, 37C): 0.0922 nM

CCGGUGACUCAAUAGUCCGUACGUUCCC [8491-94_28]
Kd (all U = NapdU, printed as 2.65-10, SB18T0.01, 37C): 0.265 nM

CCGGUGACUCAAUAGUCCGUACGUUCCCG [8491-94_51]
Kd (all U = NapdU, C3-spacer replaces G29, SB18T0.01, 37C): 0.227 nM

CCGGUGACUCAAUAGUCCGUACGUUCCCG [8491-94_52]
Kd (all U = NapdU, C3-spacer replaces G30, SB18T0.01, 37C): 0.0504 nM

CCGGUGACUCAAUAGUCCGUACGUUCCCGGUCCGAACGCGGAGGA [8491-94_23]
Kd (all U = NapdU, SB18T0.01, 37C): 0.0621 nM

CCGGUGACUCAAUAGUCCGUACGUUCCGG [8491-94_48]
Kd (all U = NapdU, C3-spacer replaces C26, SB18T0.01, 37C): 0.0302 nM

CCGGUGACUCAAUAGUCCGUACGUUCCGG [8491-94_49]
Kd (all U = NapdU, C3-spacer replaces C27, SB18T0.01, 37C): 0.266 nM

CCGGUGACUCAAUAGUCCGUACGUUCCGG [8491-94_50]
Kd (all U = NapdU, C3-spacer replaces C28, SB18T0.01, 37C): 0.448 nM

CCGGUGACUCAAUAGUCCGUCGUUCCCGG [8491-94_45]
Kd (all U = NapdU, C3-spacer replaces A21, SB18T0.01, 37C): 228 nM

CCGGUGACUCAAUAGUCCUACGUUCCCGG [8491-94_44]
Kd (all U = NapdU, C3-spacer replaces G19, SB18T0.01, 37C): 1.28 nM

CCGGUGACUCAAUAGUCGUACGUUCCCGG [8491-94_42]
Kd (all U = NapdU, C3-spacer replaces C17, SB18T0.01, 37C): 0.86 nM

CCGGUGACUCAAUAGUCGUACGUUCCCGG [8491-94_43]
Kd (all U = NapdU, C3-spacer replaces C18, SB18T0.01, 37C): 0.0142 nM

CCGGUGACUCAAUAUCCGUACGUUCCCGG [8491-94_41]
Kd (all U = NapdU, C3-spacer replaces G15, SB18T0.01, 37C): 0.598 nM

CCGGUGACUCAAUGUCCGUACGUUCCCGG [8491-94_40]
Kd (all U = NapdU, C3-spacer replaces A14, SB18T0.01, 37C): 1.99 nM

CCGGUGACUCAUAGUCCGUACGUUCCCGG [8491-94_38]
Kd (all U = NapdU, C3-spacer replaces A11, SB18T0.01, 37C): 0.148 nM

CCGGUGACUCAUAGUCCGUACGUUCCCGG [8491-94_39]
Kd (all U = NapdU, C3-spacer replaces A12, SB18T0.01, 37C): 0.31 nM

CCGGUGAUCAAUAGUCCGUACGUUCCCGG [8491-94_36]
Kd (all U = NapdU, C3-spacer replaces C8, SB18T0.01, 37C): 0.0315 nM

CCGGUGCUCAAUAGUCCGUACGUUCCCGG [8491-94_35]
Kd (all U = NapdU, C3-spacer replaces A7, SB18T0.01, 37C): 5.67 nM

CCGUGACUCAAUAGUCCGUACGUUCCCGG [8491-94_32]
Kd (all U = NapdU, C3-spacer replaces G3, SB18T0.01, 37C): 0.78 nM

CCGUGACUCAAUAGUCCGUACGUUCCCGG [8491-94_33]
Kd (all U = NapdU, C3-spacer replaces G4, SB18T0.01, 37C): 0.245 nM

CGGUGACUCAAUAGUCCGUACGUUCCCG [8491-94_59]
Kd (P = NapdU (all U), 2'-OMe C1, SB18T0.01, 5 mM MgCl2, 37 C): 0.0342 nM

CGGUGACUCAAUAGUCCGUACGUUCCCG [8491-94_60]
Kd (P = NapdU (all U), 2'-OMe G2, SB18T0.01, 5 mM MgCl2, 37 C): 0.0537 nM

CGGUGACUCAAUAGUCCGUACGUUCCCG [8491-94_61]
Kd (P = NapdU (all U), 2'-OMe G3, SB18T0.01, 5 mM MgCl2, 37 C): 0.0237 nM

CGGUGACUCAAUAGUCCGUACGUUCCCG [8491-94_62]
Kd (P = NapdU (all U), 2'-OMe P4, SB18T0.01, 5 mM MgCl2, 37 C): 0.0918 nM

CGGUGACUCAAUAGUCCGUACGUUCCCG [8491-94_63]
Kd (P = NapdU (all U), 2'-OMe G5, SB18T0.01, 5 mM MgCl2, 37 C): 0.0268 nM

CGGUGACUCAAUAGUCCGUACGUUCCCG [8491-94_64]
Kd (all U = NapdU, 2'-OMe at A6, SB18T0.01, 37C): 0.512 nM

CGGUGACUCAAUAGUCCGUACGUUCCCG [8491-94_65]
Kd (P = NapdU (all U), 2'-OMe C7, SB18T0.01, 5 mM MgCl2, 37 C): 0.0316 nM

CGGUGACUCAAUAGUCCGUACGUUCCCG [8491-94_66]
Kd (all U = NapdU, 2'-OMe at NapdU8, SB18T0.01, 37C): 0.149 nM

CGGUGACUCAAUAGUCCGUACGUUCCCG [8491-94_67]
Kd (P = NapdU (all U), 2'-OMe C9, SB18T0.01, 5 mM MgCl2, 37 C): 0.0699 nM

CGGUGACUCAAUAGUCCGUACGUUCCCG [8491-94_68]
Kd (P = NapdU (all U), 2'-OMe A10, SB18T0.01, 5 mM MgCl2, 37 C): 0.0424 nM
